# Measured values as given in patent US20210380703A1.
# Substitutions are numbered along the chain they refer to.
# B1: 376_E02 (antibody, V domains shown)
# VH: EVQLLESGGGLVQPGGSLRLSCAASGFTFSSYSMNWVRQAPGKGLEWVAGINYNGGYKGYADSVKGRFTISRDNSKNTLYLQMNSLRAEDTAVYYCARGANWHDTALDYWGQGTLVTVSS
# VL: DIQMTQSPSSLSASVGDRVTITCRASQSILSYVNWYQQKPGKAPKLVIYAATSRHSGVPSRFSGSGSGTDFTLTISSLQPEDFATYYCQQSDNTPLTFGGGTKVEIK
# B2: 376_G02 (antibody, V domains shown)
# VH: B1 VH with S31D, S33G, A49S, K58T, G59S, G99A
# VL: B1 VL with L30S, S31R, V33L, R54L, H55A, D92Y, N93D, T94N
# B3: 365_D08 (antibody, V domains shown)
# VH: B1 VH with S30D, N35H, A49S, G50S, K58T, G59S, G99A, N101T, A106H
# VL: B1 VL with L30I, S31T, V47L, H55A, D92Y, N93D
# B4: 373_H12 (antibody, V domains shown)
# VH: B1 VH with S31D, A49S, G55S, G99S, N101T, A106H
# VL: B1 VL with S31T, V33L, V47L, H55A, D92Y, T94S
# B5: 375_H01 (antibody, V domains shown)
# VH: B1 VH with S31D, G55S, K58T, G59S, G99A, A106H
# VL: B1 VL with S31T, V33L, V47L, D92Y, N93S, T94N
# B6: 366_E07 (antibody, V domains shown)
# VH: B1 VH with S30D, S33G, N35H, K58T, G59S, G99A, N101T
# VL: B1 VL with S31T, V33L, T94S
# B7: 369_H03 (antibody, V domains shown)
# VH: B1 VH with N35H, G50S, G55S, G59S, G99A
# VL: B1 VL with L30V, V33L, V47L, A51T, H55A, D92Y, N93D
# B8: 367_C06 (antibody, V domains shown)
# VH: B1 VH with S30D, N35H, G50S, G59S, G99A, N101T, A106H
# VL: B1 VL with S31T, V33L, R54L, D92Y, N93D
# B9: 374_B02 (antibody, V domains shown)
# VH: B1 VH with S30D, N35H, G55S, K58T, G59S, G99A, A106H
# VL: B1 VL with L30I, V33L, V47L, H55A, D92Y, N93D, T94S
# B10: 371_H02 (antibody, V domains shown)
# VH: B1 VH with S30D, S31D, A49S, G59S, G99A, A106H
# VL: B1 VL with L30I, V33L, R54L, H55A, D92Y, N93E, T94N
# B11: 368_C09 (antibody, V domains shown)
# VH: B1 VH with N35H, A49S, G50N, K58T, G99A, A106H
# VL: B1 VL with S31T, V47L, R54L, H55A, D92Y, N93D, T94L
# B12: 369_G10 (antibody, V domains shown)
# VH: B1 VH with S33G, N35H, G50S, K58T, G59S, G99A
# VL: B1 VL with V33L, H55A, D92Y, N93D, T94S
# B13: 365_B12 (antibody, V domains shown)
# VH: B1 VH with S31D, S33G, N35H, A49S, K58T, G59S, G99A, N101T, A106H
# VL: B1 VL with L30S, S31T, V47L, A51V, R54L, D92Y, N93D, T94N
# B14: 369_B03 (antibody, V domains shown)
# VH: B1 VH with S33G, N35H, K58T, G59S, G99A
# VL: B1 VL with S31T, R54L, H55A, D92Y, N93E, T94L
# B15: 376_E11 (antibody, V domains shown)
# VH: B1 VH with A49S, K58T, G59S
# VL: B1 VL with S31T, H55A, D92Y, N93E, T94L
# B16: 369_D06 (antibody, V domains shown)
# VH: B1 VH with S30D, A49S, K58T, G99S, N101T, A106H
# VL: B1 VL with S31T, V33L, V47L, H55A, D92Y, N93E
# B17: 365_C06 (antibody, V domains shown)
# VH: B1 VH with S31D, S33G, N35H, A49S, K58T, G59S, G99A
# VL: B1 VL with L30S, S31T, V47L, A51V, R54L, H55A, D92Y, N93D, T94N
# B18: 366_C05 (antibody, V domains shown)
# VH: B1 VH with S30D, S31D, S33G, N35H, A49S, G50S, K58T, G99A, N101T, A106H
# VL: B1 VL with L30I, V33L, H55A, D92Y, N93D, T94S
# B19: 365_D03 (antibody, V domains shown)
# VH: B1 VH with S30D, S31D, N35H, G50S, G59S, G99A, N101T, A106H
# VL: B1 VL with L30V, V33L, H55A, D92Y, N93D, T94S
# B20: 373_E11 (antibody, V domains shown)
# VH: B1 VH with S30D, S33G, N35H, G50S, K58T, G59S, G99A
# VL: B1 VL with L30V, V33L, H55A, D92Y, N93D, T94S
# B21: 367_C12 (antibody, V domains shown)
# VH: B1 VH with S33G, N35H, A49S, K58T, G59S, G99A, N101T, A106H
# VL: B1 VL with V47L, A51T, D92Y, N93E, T94S
# B22: 365_D04 (antibody, V domains shown)
# VH: B1 VH with S31D, S33G, N35H, G59S, G99A
# VL: B1 VL with L30S, V33L, A51V, H55A, D92Y, N93D, T94L
# B23: 372_E02 (antibody, V domains shown)
# VH: B1 VH with S33G, G50S, K58T, G59S, G99A
# VL: B1 VL with L30I, H55A, D92Y, N93D, T94L
# B24: 376_C07 (antibody, V domains shown)
# VH: B1 VH with A49S, G55S, G99S, N101T, A106H
# VL: B1 VL with V47L, D92Y, N93D, T94L
# B25: 375_A11 (antibody, V domains shown)
# VH: B1 VH with S31D, S33G, N35H, A49S, G50S, G55S, G59S, G99A
# VL: DIQMTQSPSSLSASVGDRVTITCRASQSIVSYLNWYQQKPGKAPKLLIYYVTNLASGVPSRFSGSGSGTDFTLTISSLQPEDFATYYCQQSYDNPLTFGGGTKVEIK
# B26: 371_A09 (antibody, V domains shown)
# VH: B1 VH with S33G, A49S, G59S, G99A
# VL: B1 VL with L30V, S31T, H55A, D92Y, N93D, T94S
# B27: 371_D12 (antibody, V domains shown)
# VH: B1 VH with S30D, S33G, A49S, G59S, G99A
# VL: B1 VL with V33L, V47L, H55A, D92Y, N93E, T94L
# B28: 371_A04 (antibody, V domains shown)
# VH: B1 VH with S30D, S33G, A49S, G50S, G55S, K58T, G99A
# VL: B25 VL with V30L, S31T, Y50A, N53S, L54R, N94T
# B29: 369_A01 (antibody, V domains shown)
# VH: B1 VH with S30D, A49S, G55S, G99S, N101T, A106H
# VL: B1 VL with S31T, R54L, H55A, D92Y, N93E, T94L
# B30: 366_B09 (antibody, V domains shown)
# VH: B1 VH with S31D, S33G, N35H, A49S, G50S, G55S, G59S, G99A, N101T, A106H
# VL: B1 VL with S31T, V33L, D92Y, N93D, T94S
# B31: 366_H01 (antibody, V domains shown)
# VH: B1 VH with S30D, S31D, N35H, G50N, K58T, G59S, G99A, N101T, A106H
# VL: B1 VL with S31T, V33L, A51T, D92Y, N93E, T94S
# B32: 365_F10 (antibody, V domains shown)
# VH: B1 VH with S30D, S31D, S33G, N35H, A49S, K58T, G59S, G99A, N101T, A106H
# VL: B1 VL with L30V, S31T, V47L, H55A, D92Y, N93E, T94L
# B33: 367_A11 (antibody, V domains shown)
# VH: B1 VH with S33G, N35H, A49S, K58T, G59S, G99S, N101T, A106H
# VL: B1 VL with A51T, R54L, H55A, D92Y, T94S
# B34: 375_A04 (antibody, V domains shown)
# VH: B1 VH with S30D, S33G, G59S, G99A
# VL: B25 VL with V30L, S31T, L47V, T52N, A55P, D93N, N94S
# B35: 371_D07 (antibody, V domains shown)
# VH: B1 VH with S30D, S31D, S33G, G50N, G99A, A106H
# VL: B1 VL with S31T, V33L, H55A, D92Y, N93E, T94L
# B36: 372_A09 (antibody, V domains shown)
# VH: B1 VH with S30D, S33G, A49S, K58T, G59S, G99A
# VL: B1 VL with V33L, H55A, D92Y, T94S
# B37: 365_B10 (antibody, V domains shown)
# VH: B1 VH with S30D, S31D, N35H, G50S, G55S, G99A
# VL: B1 VL with S31R, V33L, V47L, H55A, T94L
# B38: 370_H08 (antibody, V domains shown)
# VH: B1 VH with S33G, N35H, G50S, K58T, G59S, G99A, A106H
# VL: B1 VL with V47L, D92Y, N93S, T94L
# B39: 368_F10 (antibody, V domains shown)
# VH: B1 VH with S33G, G55S, K58T, G59S, G99A, A106H
# VL: B1 VL with L30V, V47L, H55A, D92Y, N93D
# B40: 374_F03 (antibody, V domains shown)
# VH: B1 VH with S33G, G50S, K58T, G59S, G99A, A106H
# VL: B1 VL with L30I, H55A, D92Y, N93D
# B41: 369_F04 (antibody, V domains shown)
# VH: B1 VH with S33G, A49S, K58T, G59S, G99S, N101T, A106H
# VL: B1 VL with L30I, V47L, D92Y, N93D, T94N
# B42: 368_D09 (antibody, V domains shown)
# VH: B1 VH with S30D, S33G, N35H, G55S, G59S, G99A, A106H
# VL: B25 VL with L33V, Y50A, V51A, N53S
# B43: 372_B11 (antibody, V domains shown)
# VH: B1 VH with N35H, G55S, K58T, G59S, G99A, A106H
# VL: B1 VL with S31T, R54L, H55A, D92Y, N93D
# B44: 366_G02 (antibody, V domains shown)
# VH: B1 VH with S30D, S33G, N35H, A49S, G50S, K58T, G59S, G99A, N101T, A106H
# VL: B1 VL with S31T, V33L, V47L, N93D, T94N
# B45: 370_B01 (antibody, V domains shown)
# VH: B1 VH with S30D, S31D, S33G, N35H, A49S, G59S, G99A
# VL: B1 VL with V47L, A50V, T52S, H55A, D92Y, N93S, T94L
# B46: 365_G06 (antibody, V domains shown)
# VH: B1 VH with S30D, S33G, N35H, K58T, G59S, G99A, N101T, A106H
# VL: B1 VL with V33L, V47L, R54L, H55A, N93S
# B47: 375_F12 (antibody, V domains shown)
# VH: B1 VH with S30D, S33G, N35H, G50S, K58T, G59S, G99A
# VL: B1 VL with S31T, V33L, H55A, N93E, T94L
# Biological target: human Fc (human)
# Assay: ELISA, negative control
row,optical density [OD],Binder
1,0.222,B1
2,0.285,B2
3,0.35,B3
4,0.162,B4
5,0.216,B5
6,0.262,B6
7,0.498,B7
8,0.29,B8
9,0.179,B9
10,0.388,B10
11,0.341,B11
12,0.423,B12
13,0.307,B13
14,0.62,B14
15,0.268,B15
16,0.324,B16
17,0.318,B17
18,0.269,B18
19,0.346,B19
20,0.243,B20
21,0.31,B21
22,0.316,B22
23,0.431,B23
24,0.265,B24

row,optical density [OD],Binder
1,0.176,B25
2,0.302,B26
3,0.337,B27
4,0.315,B28
5,0.456,B29
6,0.283,B30
7,0.384,B31
8,0.386,B32
9,0.3,B33
10,0.177,B34
11,0.299,B35
12,0.31,B36
13,0.322,B37
14,0.538,B38
15,0.328,B39
16,0.185,B40
17,0.369,B41
18,0.212,B42
19,0.438,B43
20,0.357,B44
21,0.47,B45
22,0.32,B46
23,0.175,B47
